Measurements from patent publication US10081667B2, “Composition and method for therapeutic agent delivery during pregnancy” (University of Mississippi Medical Center, priority 2013, dated 2018).

How the values were obtained:
[1] = ELP-VEGF pharmacokinetics and biodistribution in mice after bolus IV; format: in vivo, C57/B16 mice
Method: FIG. 12 includes graphs showing ELP-VEGF pharmacokinetics and biodistribution. FIG. 12A. Fluorescently labeled free VEGF or ELP-VEGF were administered by IV injection to C57/B16 mice. Plasma levels were determined by direct fluorescence quantitation and fit to a two-compartment pharmacokinetic model. FIG. 12B. […] FIG. 12D.
In addition to examining the ELP-VEGF activity in vitro, the pharmacokinetics (PK) and biodistribution of ELP-VEGF in comparison to free VEGF121 is also determined. Both free VEGF121 and ELP-VEGF were fluorescently labeled, and their PK and biodistribution were determined in mice after bolus intravenous administration. […] This is consistent with other reports of approximately a 30 minute half-life for recombinant VEGF in humans. ELP-VEGF cleared more slowly than free VEGF121 (FIG. 12A). […] Four hours after the infusion, the biodistribution was determined by ex vivo whole organ fluorescence imaging.

[2] = test system: human umbilical vein endothelial cells (HUVECs); experiment: HUVEC proliferation, MTS cell proliferation assay; format: cell-based; details: 72 h exposure
Method: FIG. 9 is a bar graph showing ELP-VEGF stimulation of HUVEC proliferation. HUVEC cell proliferation was determined after 72 h exposure to ELP, VEGF, or ELP-VEGF at the indicated concentrations using the MTS cell proliferation assay.
Proliferation of human umbilical vein endothelial cells (HUVECs) is stimulated when the cell are exposed to VEGF.

[3] = test system: rat model of preeclampsia; experiment: Blood pressure in the reduced uterine perfusion (RUPP) rat model of preeclampsia; format: in vivo, rats; details: 1 mg/kg/day IP minipump GD14 to GD19, measured GD19
Method: FIG. 13 is a bar graph showing effect of ELP-VEGF on blood pressure in the reduced uterine perfusion model. A study was conducted in pregnant rats subjected to surgical reduction of uterine blood flow (RUPP) on gestational day 14 (GD14). ELP-VEGF or saline control was administered by continuous infusion via IP minipump from GD14 to GD19 at a dose of 1 mg/kg/day. Data represent the mean arterial pressure as assessed by indwelling carotid catheters on GD19. Individual animal data are indicated by the points.
Whether ELP-VEGF was effective for lowering blood pressure in a rat model of preeclampsia is texted next. Pregnant rats at gestational day 14 (GD14) were subjected to surgery to reduce ale blood flow to the placentas. It has previously been shown that this model, achieved by partially restricting the ovarian arteries and the dorsal aorta, results in a preeclampsia-like syndrome in the rat. The effects mirror human preeclampsia in that the rats develop hypertension, proteinuria, reduced renal function, fetal growth restriction, and some fetal loss. […] The hypertension associated with this model can be seen in FIG. 13, where the mean arterial pressure increased from about 105 mmHg in normal pregnant rats on GD19 to over 120 mmHg in the preeclampsia model as measured by a pressure transducer inserted into a carotid arterial catheter.

[4] = rat, in vivo
NF-κB = experiment: In vitro NF-κB activation assay: nuclear localization of NF-κB in TNFα-stimulated HUVECs; format: cell-based, human; details: 20 μM pretreatment 24 h, TNFα 1 h
Method: FIG. 14 includes images and a bar graph illustrating inhibition of NF-κB activation with an ELP-delivered p50 peptide. FIG. 14A. Localization of NF-κB in HUVEC cells before and after TNFα stimulation. HUVECs were treated with SynB1-ELP control or SynB1-ELP-p50 (20 μM) for 24 h. Cells were then stimulated for 1 h with TNFα, and NF-κB localization was determined by immunostaining for the p65 subunit (green) and for nuclei with DAPI (blue). FIG. 14B. The nuclear cytoplasmic ratio of NF-κB staining was determined under each treatment condition. Data represent the mean of 30-60 cells per treatment and are averaged over three experiments.
This investigation has developed an ELP-fused peptide inhibitor of activated NF-κB. NF-κB activation upon extracellular signaling is mediated by phosphorylation and release of the natural inhibitor I-κB from the NF-κB p50/p65 heterodimer. I-κB release exposes a nuclear localization sequence (NLS) on the p50 subunit of NF-κB, and once exposed, this NLS mediates nuclear import of NF-κB. Once inside the nucleus, NF-κB binds to response elements on its target genes and regulates gene expression. […] Stimulation of cultured HUVECs with TNF-α leads to rapid activation of the NF-κB pathway, and this can be detected by monitoring nuclear localization of NF-κB (FIG. 14A, left panel).

endothelin-1 = experiment: Endothelin-1 release by HUVECs, ELISA; format: cell-based, human
Method: FIG. 15 includes a graph illustrating the inhibition of endothelin release by SynB1-ELP-p50. HUVECs growing in 24-well plates were treated with 50 μM SynB1-ELP or SynB1-ELP-p50 overnight, then 50 or 100 ng/mL […]. Cells were incubated overnight, and culture media was collected and frozen.
TNFα stimulation also leads to the secretion of the vasoactive peptide endothelin-1 by HUVECs. This endothelin release contributes to the hypertension associated with the pro-inflammatory environment in preeclampsia.

B1: ELP-VEGF: ELP sequence (SEQ ID NO: 4) fused to a C-terminal VEGF121 sequence, SEQ ID NO: 14; 73 kDa protein (protein)
chain: MSKGPGVGVPGAGVPGGGVPGAGVPGGGVPGAGVPGGGVPGAGVPGGGVPGAGVPGGGVPGAGVPGGGVPGAGVPGGGVPGAGVPGVGVPGAGVPGGGVPGAGVPGGGVPGAGVPGGGVPGAGVPGGGVPGAGVPGGGVPGAGVPGGGVPGAGVPGGGVPGAGVPGVGVPGAGVPGGGVPGAGVPGGGVPGAGVPGGGVPGAGVPGGGVPGAGVPGGGVPGAGVPGGGVPGAGVPGGGVPGAGVPGVGVPGAGVPGGGVPGAGVPGGGVPGAGVPGGGVPGAGVPGGGVPGAGVPGGGVPGAGVPGGGVPGAGVPGGGVPGAGVPGVGVPGAGVPGGGVPGAGVPGGGVPGAGVPGGGVPGAGVPGGGVPGAGVPGGGVPGAGVPGGGVPGAGVPGGGVPGAGVPGVGVPGAGVPGGGVPGAGVPGGGVPGAGVPGGGVPGAGVPGGGVPGAGVPGGGVPGAGVPGGGVPGAGVPGGGVPGAGVPGVGVPGAGVPGGGVPGAGVPGGGVPGAGVPGGGVPGAGVPGGGVPGAGVPGGGVPGAGVPGGGVPGAGVPGGGVPGAGVPGVGVPGAGVPGGGVPGAGVPGGGVPGAGVPGGGVPGAGVPGGGVPGAGVPGGGVPGAGVPGGGVPGAGVPGGGVPGAGVPGVGVPGAGVPGGGVPGAGVPGGGVPGAGVPGGGVPGAGVPGGGVPGAGVPGGGVPGAGVPGGGVPGAGVPGGGVPGAGVPGVGVPGAGVPGGGVPGAGVPGGGVPGAGVPGGGVPGAGVPGGGVPGAGVPGGGVPGAGVPGGGVPGAGVPGGGVPGAGVPGWPGSGAPMAEGGGQNHHEVVKFMDVYQRSYCHPIETLVDIFQEYPDEIEYIFKPSCVPLMRCGGCCNDEGLECVPTEESNITMQIMRIKPHQGQHIGEMSFLQHNKCECRPKKDRARQEKCDKPRR
modifications: synthetic ELP-VEGF sequences
notes: 73 kDa protein
[1]
  fluorescence in the urine at the end of the experiment: less fluorescence detectable in the urine
[1]; IV
  plasma clearance rate relative to free VEGF121: about half the rate of free VEGF121
[1]; four hours after the infusion
  kidney deposition relative to free VEGF121: significantly lower than for free VEGF121
  organ accumulation, ex vivo whole organ fluorescence imaging: accumulated more highly in the spleen and liver than did free VEGF121
[2]
  stimulation of HUVEC proliferation: stimulated HUVEC proliferation with equal potency
[3]
  mean arterial pressure: effectively lowered the blood pressure of the preeclampsia-induced rats to near normal levels

B2: SynB1-ELP-p50: SynB1 peptide fused to N-terminus of ELP (SEQ ID NO: 4), p50 peptide at the C-terminus; SEQ ID NO: 15 (protein)
chain: MRGGRLSYSRRRFSTSTGRGCGPGVGVPGAGVPGGGVPGAGVPGGGVPGAGVPGGGVPGAGVPGGGVPGAGVPGGGVPGAGVPGGGVPGAGVPGGGVPGAGVPGVGVPGAGVPGGGVPGAGVPGGGVPGAGVPGGGVPGAGVPGGGVPGAGVPGGGVPGAGVPGGGVPGAGVPGGGVPGAGVPGVGVPGAGVPGGGVPGAGVPGGGVPGAGVPGGGVPGAGVPGGGVPGAGVPGGGVPGAGVPGGGVPGAGVPGGGVPGAGVPGVGVPGAGVPGGGVPGAGVPGGGVPGAGVPGGGVPGAGVPGGGVPGAGVPGGGVPGAGVPGGGVPGAGVPGGGVPGAGVPGVGVPGAGVPGGGVPGAGVPGGGVPGAGVPGGGVPGAGVPGGGVPGAGVPGGGVPGAGVPGGGVPGAGVPGGGVPGAGVPGVGVPGAGVPGGGVPGAGVPGGGVPGAGVPGGGVPGAGVPGGGVPGAGVPGGGVPGAGVPGGGVPGAGVPGGGVPGAGVPGVGVPGAGVPGGGVPGAGVPGGGVPGAGVPGGGVPGAGVPGGGVPGAGVPGGGVPGAGVPGGGVPGAGVPGGGVPGAGVPGVGVPGAGVPGGGVPGAGVPGGGVPGAGVPGGGVPGAGVPGGGVPGAGVPGGGVPGAGVPGGGVPGAGVPGGGVPGAGVPGVGVPGAGVPGGGVPGAGVPGGGVPGAGVPGGGVPGAGVPGGGVPGAGVPGGGVPGAGVPGGGVPGAGVPGGGVPGAGVPGVGVPGAGVPGGGVPGAGVPGGGVPGAGVPGGGVPGAGVPGGGVPGAGVPGGGVPGAGVPGGGVPGAGVPGGGVPGAGVPGWPGSGGVQRKRQKLMP
modifications: synthetic SynB1-ELP-p50 sequence
[4]
  entry into fetal circulation / pups: effectively prevents the peptide from entering the fetal circulation
  terminal half-life (in words): greater than two hours
NF-κB
  nuclear translocation of NF-κB after TNF-α stimulation: completely blocks this nuclear translocation of NF-κB
endothelin-1; 50 μM
  endothelin release from unstimulated HUVECs: decreases the endothelin release from unstimulated HUVECs
endothelin-1; 50 μM pre-treatment overnight
  endothelin release from TNFα-stimulated HUVECs: the endothelin release is completely blocked
